Laboratory results reported in patent US20140072613A1 (published 2014).

T1: Txk(h) (human, UniProt P42681 1-527, limits assumed)
T1 sequence (looked up): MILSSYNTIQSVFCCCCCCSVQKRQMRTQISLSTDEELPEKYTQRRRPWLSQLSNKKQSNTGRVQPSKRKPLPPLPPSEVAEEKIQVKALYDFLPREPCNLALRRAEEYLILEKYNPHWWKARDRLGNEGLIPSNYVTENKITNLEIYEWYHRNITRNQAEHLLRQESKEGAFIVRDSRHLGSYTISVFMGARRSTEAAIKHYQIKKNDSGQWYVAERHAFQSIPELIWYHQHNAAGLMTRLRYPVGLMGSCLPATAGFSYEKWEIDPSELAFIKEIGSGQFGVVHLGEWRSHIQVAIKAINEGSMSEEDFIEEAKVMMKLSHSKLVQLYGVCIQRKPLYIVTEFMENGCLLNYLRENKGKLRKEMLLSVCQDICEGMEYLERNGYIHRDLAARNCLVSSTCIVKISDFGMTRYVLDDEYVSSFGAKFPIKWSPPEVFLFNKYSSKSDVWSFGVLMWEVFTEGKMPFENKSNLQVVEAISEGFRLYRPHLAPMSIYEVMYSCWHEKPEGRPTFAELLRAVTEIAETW

T2: Tec(h)activated (human, UniProt P42680 1-631, limits assumed)
T2 sequence (looked up): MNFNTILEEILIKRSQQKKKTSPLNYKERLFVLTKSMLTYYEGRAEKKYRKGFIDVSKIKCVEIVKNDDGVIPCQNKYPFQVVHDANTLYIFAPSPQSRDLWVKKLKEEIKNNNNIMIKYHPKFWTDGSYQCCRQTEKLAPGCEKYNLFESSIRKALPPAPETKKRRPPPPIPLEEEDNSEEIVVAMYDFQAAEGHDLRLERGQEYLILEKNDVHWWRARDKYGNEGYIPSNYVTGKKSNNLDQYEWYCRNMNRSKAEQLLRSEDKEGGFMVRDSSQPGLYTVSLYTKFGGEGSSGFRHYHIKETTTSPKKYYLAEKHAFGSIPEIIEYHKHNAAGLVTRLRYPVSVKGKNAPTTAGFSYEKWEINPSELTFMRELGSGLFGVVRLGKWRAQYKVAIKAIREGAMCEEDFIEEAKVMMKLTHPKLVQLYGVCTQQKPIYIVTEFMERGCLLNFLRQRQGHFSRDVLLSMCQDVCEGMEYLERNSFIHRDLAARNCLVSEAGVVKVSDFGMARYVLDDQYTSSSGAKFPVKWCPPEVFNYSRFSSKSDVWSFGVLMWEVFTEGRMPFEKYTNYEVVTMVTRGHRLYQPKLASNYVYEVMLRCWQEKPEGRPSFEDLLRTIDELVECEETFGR

T3: MST1(h) (human, UniProt Q13043 1-487)
T3 sequence (looked up): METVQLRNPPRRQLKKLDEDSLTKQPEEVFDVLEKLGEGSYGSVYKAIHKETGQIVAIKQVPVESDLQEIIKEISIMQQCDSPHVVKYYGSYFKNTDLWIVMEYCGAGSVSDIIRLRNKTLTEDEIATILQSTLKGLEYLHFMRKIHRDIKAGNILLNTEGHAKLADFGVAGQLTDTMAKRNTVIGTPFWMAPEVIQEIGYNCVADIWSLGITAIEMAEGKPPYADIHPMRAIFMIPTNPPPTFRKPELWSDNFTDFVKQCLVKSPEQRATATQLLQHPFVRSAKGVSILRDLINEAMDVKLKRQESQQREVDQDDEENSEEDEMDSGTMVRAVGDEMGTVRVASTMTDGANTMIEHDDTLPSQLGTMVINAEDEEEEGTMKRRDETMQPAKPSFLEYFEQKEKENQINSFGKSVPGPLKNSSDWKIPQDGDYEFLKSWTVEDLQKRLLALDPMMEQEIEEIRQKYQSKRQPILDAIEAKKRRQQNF

T4: PRAK(h) (human, UniProt Q8IW41 1-473, limits assumed)
T4 sequence (looked up): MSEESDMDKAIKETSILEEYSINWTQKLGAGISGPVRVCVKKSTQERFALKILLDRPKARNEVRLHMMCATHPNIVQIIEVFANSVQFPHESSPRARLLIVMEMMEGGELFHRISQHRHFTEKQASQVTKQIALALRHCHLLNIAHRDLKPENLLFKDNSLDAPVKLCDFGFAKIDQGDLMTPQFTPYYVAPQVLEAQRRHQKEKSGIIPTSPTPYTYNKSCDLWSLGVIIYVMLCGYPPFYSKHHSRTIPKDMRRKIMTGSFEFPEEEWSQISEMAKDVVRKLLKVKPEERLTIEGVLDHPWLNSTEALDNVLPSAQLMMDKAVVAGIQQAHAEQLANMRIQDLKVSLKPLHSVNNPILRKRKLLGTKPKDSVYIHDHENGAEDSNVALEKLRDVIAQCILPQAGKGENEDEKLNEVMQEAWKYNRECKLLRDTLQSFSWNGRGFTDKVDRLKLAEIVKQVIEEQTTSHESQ


What was measured:
Test in all cases: cell-based or functional assay
[1] = biological target: LIMK1(h) (human, UniProt P53667 285-638, limits assumed)
[2] = biological target: T1, Txk(h)
[3] = biological target: CDK3/cyclinE(h) (human, UniProt Q00526 1-305; P24864 1-410)
[4] = biological target: T2, Tec(h)activated
[5] = biological target: Rsk3(h) (human, UniProt Q15349 1-733)
[6] = biological target: T3, MST1(h)
[7] = biological target: SIK(h) (human, UniProt P57059 1-783, limits assumed)
[8] = biological target: MAPKAP-K3(h) (human, UniProt Q16644 1-382, limits assumed)
[9] = biological target: AMPKα2(h) (human, UniProt P54646 1-552)
[10] = biological target: T4, PRAK(h)
[11] = biological target: PDGFRα(V561D)(h) (human, UniProt P16234 550-1089, limits assumed)
[12] = biological target: Fer(h) (human, UniProt P16591 541-822, limits assumed)
[13] = biological target: Met(M1268T)(h) (human, UniProt P08581-2 974-1408, limits assumed)

Sequence of LIMK1(h) (P53667 285-638 limits assumed): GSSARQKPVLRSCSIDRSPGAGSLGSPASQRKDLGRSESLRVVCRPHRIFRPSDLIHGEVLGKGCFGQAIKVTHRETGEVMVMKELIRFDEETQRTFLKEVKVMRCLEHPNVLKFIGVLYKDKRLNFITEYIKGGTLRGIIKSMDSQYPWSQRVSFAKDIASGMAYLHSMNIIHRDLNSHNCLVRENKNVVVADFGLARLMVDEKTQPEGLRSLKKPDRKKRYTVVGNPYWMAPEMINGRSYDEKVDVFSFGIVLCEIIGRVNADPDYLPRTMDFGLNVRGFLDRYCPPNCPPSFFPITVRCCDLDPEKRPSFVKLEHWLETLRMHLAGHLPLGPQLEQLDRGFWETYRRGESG
Sequence of AMPKα2(h) (P54646 whole entry): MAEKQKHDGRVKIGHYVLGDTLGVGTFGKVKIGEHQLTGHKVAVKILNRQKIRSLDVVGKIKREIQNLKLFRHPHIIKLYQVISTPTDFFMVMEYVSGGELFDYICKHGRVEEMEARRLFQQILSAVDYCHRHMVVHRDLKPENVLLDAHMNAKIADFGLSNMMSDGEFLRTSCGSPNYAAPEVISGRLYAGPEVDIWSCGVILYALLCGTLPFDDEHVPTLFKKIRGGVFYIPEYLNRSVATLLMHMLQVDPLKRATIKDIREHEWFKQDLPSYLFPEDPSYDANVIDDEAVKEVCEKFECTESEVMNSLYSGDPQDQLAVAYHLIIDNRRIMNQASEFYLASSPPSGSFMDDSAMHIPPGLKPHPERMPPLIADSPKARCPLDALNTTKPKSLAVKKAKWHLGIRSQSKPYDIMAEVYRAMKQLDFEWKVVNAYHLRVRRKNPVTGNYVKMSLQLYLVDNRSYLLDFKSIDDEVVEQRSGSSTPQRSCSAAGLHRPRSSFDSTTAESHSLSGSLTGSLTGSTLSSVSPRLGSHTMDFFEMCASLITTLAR
Sequence of MAPKAP-K3(h) (Q16644 whole entry): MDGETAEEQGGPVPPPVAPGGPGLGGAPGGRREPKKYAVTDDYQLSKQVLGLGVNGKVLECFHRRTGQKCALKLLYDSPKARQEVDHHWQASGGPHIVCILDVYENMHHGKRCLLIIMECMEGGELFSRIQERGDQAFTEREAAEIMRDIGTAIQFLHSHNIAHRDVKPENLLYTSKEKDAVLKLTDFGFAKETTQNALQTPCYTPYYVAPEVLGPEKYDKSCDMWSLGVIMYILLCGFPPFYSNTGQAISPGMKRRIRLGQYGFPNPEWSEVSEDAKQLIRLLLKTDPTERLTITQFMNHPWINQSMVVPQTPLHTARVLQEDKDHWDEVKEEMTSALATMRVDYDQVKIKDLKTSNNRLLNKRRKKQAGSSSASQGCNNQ
Sequence of Fer(h) (P16591 541-822 limits assumed): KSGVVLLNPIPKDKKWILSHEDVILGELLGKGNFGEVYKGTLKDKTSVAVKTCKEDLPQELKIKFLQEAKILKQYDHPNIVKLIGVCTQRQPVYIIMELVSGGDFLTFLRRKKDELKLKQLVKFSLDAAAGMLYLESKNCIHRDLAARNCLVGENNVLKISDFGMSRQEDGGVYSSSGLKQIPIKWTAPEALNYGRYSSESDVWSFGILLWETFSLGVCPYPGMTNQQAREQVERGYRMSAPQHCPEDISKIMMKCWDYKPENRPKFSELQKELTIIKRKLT
Sequence of SIK(h) (P57059 whole entry): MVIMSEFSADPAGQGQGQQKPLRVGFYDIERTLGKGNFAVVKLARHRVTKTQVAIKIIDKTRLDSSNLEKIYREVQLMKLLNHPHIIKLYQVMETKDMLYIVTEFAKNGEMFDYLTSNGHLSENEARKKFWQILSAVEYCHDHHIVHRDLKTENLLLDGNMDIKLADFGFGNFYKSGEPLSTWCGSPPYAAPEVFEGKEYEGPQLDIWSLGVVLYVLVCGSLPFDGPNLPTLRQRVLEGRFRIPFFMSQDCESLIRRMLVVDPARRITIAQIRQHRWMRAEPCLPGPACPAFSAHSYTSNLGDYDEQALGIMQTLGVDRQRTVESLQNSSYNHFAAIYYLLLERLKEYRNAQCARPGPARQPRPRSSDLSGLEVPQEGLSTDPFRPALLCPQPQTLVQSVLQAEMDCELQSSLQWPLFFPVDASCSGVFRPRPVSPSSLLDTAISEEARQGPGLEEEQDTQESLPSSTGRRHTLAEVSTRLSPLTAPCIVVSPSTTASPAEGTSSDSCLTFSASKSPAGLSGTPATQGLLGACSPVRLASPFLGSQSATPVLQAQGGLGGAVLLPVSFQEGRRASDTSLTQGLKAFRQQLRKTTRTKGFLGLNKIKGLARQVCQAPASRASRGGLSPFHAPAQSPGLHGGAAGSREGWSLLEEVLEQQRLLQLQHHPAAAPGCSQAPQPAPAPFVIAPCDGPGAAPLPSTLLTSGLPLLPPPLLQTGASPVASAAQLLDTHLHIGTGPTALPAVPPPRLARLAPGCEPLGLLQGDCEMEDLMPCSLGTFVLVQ
Sequence of PDGFRα(V561D)(h) (P16234 550-1089 V561D limits assumed): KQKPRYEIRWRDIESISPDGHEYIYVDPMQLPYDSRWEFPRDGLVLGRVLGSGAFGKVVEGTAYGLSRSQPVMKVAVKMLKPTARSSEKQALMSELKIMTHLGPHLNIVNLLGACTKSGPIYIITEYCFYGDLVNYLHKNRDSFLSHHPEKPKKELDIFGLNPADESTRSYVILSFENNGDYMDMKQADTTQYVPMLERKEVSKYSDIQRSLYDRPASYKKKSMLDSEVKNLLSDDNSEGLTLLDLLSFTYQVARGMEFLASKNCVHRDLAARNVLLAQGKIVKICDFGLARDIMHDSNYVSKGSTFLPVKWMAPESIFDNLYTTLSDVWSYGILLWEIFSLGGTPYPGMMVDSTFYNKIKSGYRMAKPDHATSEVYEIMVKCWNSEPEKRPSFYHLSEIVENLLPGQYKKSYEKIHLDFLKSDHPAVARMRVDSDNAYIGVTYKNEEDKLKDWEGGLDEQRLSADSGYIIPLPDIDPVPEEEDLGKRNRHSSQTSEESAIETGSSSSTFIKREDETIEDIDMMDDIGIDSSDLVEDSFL
Sequence of Rsk3(h) (Q15349 whole entry): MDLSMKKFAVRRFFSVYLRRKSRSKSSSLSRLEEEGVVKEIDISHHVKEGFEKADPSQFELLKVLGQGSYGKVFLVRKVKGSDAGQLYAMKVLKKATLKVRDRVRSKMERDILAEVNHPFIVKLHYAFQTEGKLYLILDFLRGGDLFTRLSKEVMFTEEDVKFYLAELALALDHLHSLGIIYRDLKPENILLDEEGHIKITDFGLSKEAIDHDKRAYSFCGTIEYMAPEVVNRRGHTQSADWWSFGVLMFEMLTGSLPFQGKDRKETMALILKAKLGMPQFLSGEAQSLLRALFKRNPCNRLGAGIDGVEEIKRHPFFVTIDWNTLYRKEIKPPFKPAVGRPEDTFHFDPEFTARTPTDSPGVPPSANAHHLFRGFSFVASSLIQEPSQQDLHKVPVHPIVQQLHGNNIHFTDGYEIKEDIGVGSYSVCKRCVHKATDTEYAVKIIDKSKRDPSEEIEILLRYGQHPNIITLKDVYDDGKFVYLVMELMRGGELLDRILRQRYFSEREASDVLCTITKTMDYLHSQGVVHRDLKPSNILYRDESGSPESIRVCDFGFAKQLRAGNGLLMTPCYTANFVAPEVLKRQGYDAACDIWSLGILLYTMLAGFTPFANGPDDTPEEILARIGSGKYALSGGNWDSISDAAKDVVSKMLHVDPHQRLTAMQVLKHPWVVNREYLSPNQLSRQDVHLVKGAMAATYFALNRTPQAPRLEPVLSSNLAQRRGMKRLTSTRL

Row | Binder | % activity, 100 µM [1] [%] | % activity, 100 µM [2] [%] | % activity, 100 µM [3] [%] | % activity, 100 µM [4] [%] | % activity, 100 µM [5] [%] | % activity, 100 µM [6] [%] | % activity, 100 µM [7] [%] | % activity, 100 µM [8] [%] | % activity, 100 µM [9] [%] | % activity, 100 µM [10] [%] | % activity, 100 µM [11] [%] | % activity, 100 µM [12] [%] | % activity, 100 µM [13] [%]
1 | KAFAKLAARLYRKALARQLGVAA [MMI-0400] | 92 | 37 | 92 | 29 | 71 | 6 | 68 | 7 | 58 | 118 | 100 | 108 | 265
2 | FAKLAARLYRKALARQLGVAA [MMI-0300] | 88 | 48 | 94 | 56 | 76 | 14 | 66 | 3 | 54 | 128 | 82 | 130 | 255
